Experiments:
[1] = GFP/γH2AX colocalisation foci after damage, U2OS; details: glycan lost; control: GFP-YTHDC1-WT, no inhibitor
[2] = neutral comet assay after Zeocin; details: glycan lost; control: YTHDC1-WT rescue after siYTHDC1
[3] = γH2AX foci count after Zeocin release; details: glycan lost; control: GFP-YTHDC1-WT
[4] = CCK-8 assay, Zeocin doses and durations; details: glycan lost; control: YTHDC1-WT
[5] = GFP foci count after Zeocin or IR, U2OS; details: glycan lost; control: GFP-YTHDC1-WT
[6] = Rad51/γH2AX co-staining after Zeocin, U2OS; details: glycan lost; control: YTHDC1-WT rescue after siYTHDC1
[7] = FRAP of GFP-YTHDC1 puncta, basal conditions; details: glycan lost; control: GFP-YTHDC1-WT
[8] = FRAP of GFP-YTHDC1 puncta, Zeocin vs untreated; details: glycan lost; control: GFP-YTHDC1-WT
[9] = chromatin fractionation, anti-Flag blot, Zeocin, 293T; details: glycan lost; control: YTHDC1-WT

YTHDC1: OSMI-1
localisation_or_trafficking [1]: decreases

YTHDC1: S396A
other: DSB repair kinetics [2]: decreases
other: persisting γH2AX foci after damage [3]: increases
other: cell survival after Zeocin [4]: decreases
localisation_or_trafficking [5]: decreases
other: Rad51 recruitment to DSBs [6]: decreases
other: condensate dynamics (FRAP recovery) [7]: increases
other: Zeocin-induced change in FRAP rate [8]: abolishes
localisation_or_trafficking [1]: decreases
localisation_or_trafficking [9]: abolishes

Source: paper PMC11997583
